Each block holds one molecule with its values, some of them ahead of it.
Key:
[1] = biological target: T1, human EGF receptor (Homo sapiens, UniProt P00533); experiment: EGF receptor dimerization monitored by β-gal complementation (FACS) in C2F3 mouse myoblasts expressing chimeric receptors; type: cell-based
T1 construct: transmembrane domains of the human EGF receptor (amino acids 1–655) was amplified; expressed in transfected cells; host or cells: C2F3 mouse myoblasts, retrovirally transduced (pWZL-Δα-neo, pWZL-Δω-hygro), selected clone
Excerpt: (§1) Construction of chimeric receptors. The weakly complementing Δα and Δω deletion mutants of β-gal were each linked to a polypeptide sequence containing the extracellular and transmembrane domains of the human EGF receptor to form chimeric receptor molecules. The chimeric receptors lacked the cytoplasmic domain, and attendant tyrosine kinase activity, of the native receptor. The procedure was as follows. The sequence coding for the extracellular and transmembrane domains of the human EGF receptor (amino acids 1–655) was amplified by polymerase chain reaction (PCR) using primers that incorporated an NcoI site at the 5′ end and an XhoI site at the 3′ end of the PCR product. Although this fragment retains threonine 654, which is a site of protein kinase C (PKC) phosphorylation, arginines 656 and 657 are removed, destroying the consensus PKC recognition sequence. The amino acid sequence beginning with threonine 654 is thr-leu-glu-ser-met, with the met residue being the beginning of the β-gal sequence. The glu and ser codons are generated by the junction sequence and are not native to either EGF or β-gal.
(§2) DNAs encoding the chimeric receptors were inserted into a retroviral vector also encoding a selectable marker. For the construct containing the EGF receptor-Δα fusion, the selectable marker was the neo gene, encoding G418 resistance; while the EGF receptor-Δω fusion specified hygromycin resistance (FIG. 1B). Accordingly, the EGF receptor PCR product was digested and cloned into the NcoI and XhoI sites of the pWZL-Δα and pWZL-Δω vectors. The pWZL-Δα-neo and pWZL-Δω-hygro plasmids were constructed by cloning the lacZ Δα and Δω deletion mutants into pWZL-neo and pWZL-hygro, respectively. Mohler et al., supra; and Rossi et al. (1997) Proc. Natl. Acad. Sci. USA 94:8405–8410. Plasmids were transfected into φNX cells using Lipofectamine (Life Technologies), and virus-containing supernatant was harvested 48–72 hours later. C2F3 mouse myoblasts (Rastinejad et al. (1993) Cell 72:903–917) maintained in DME with 20% fetal bovine serum (FBS) in 10% CO2, were infected by overnight incubation in the viral supernatant. Cells containing both constructs were selected in 1 mg/ml G418 plus 1 mg/ml hygromycin, and were maintained in 400 μg/ml of each antibiotic.
(§3) EGF treatment and FACS analysis Cells were treated with mouse salivary gland EGF (Sigma) at 100 ng/ml and in some experiments were treated with tyrphostin AG1478 (Calbiochem) at 100 nM. Following all treatments, cells were rinsed with phosphate buffered saline (PBS), trypsinized, and resuspended in PBS+5% FBS. Fluorescein di-β-D-galactopyranoside (FDG; Molecular Probes) was loaded into the cells by hypotonic shock as described. Fiering et al. (1991) Cytometry 12:291–301 and Nolan et al. (1988) Proc. Natl. Acad. Sci. USA 85:2603–2607. Cells were kept on ice until analysis on the cell sorter, which was conducted 1 to 2 hours after trypsinization.
(§4) The chimeric receptor was detected by immunofluorescence using a monoclonal mouse anti-human EGF receptor antibody diluted 1:100 (clone EGFR1, Dako) and either phycoerythrin-labeled horse anti-mouse IgG (Vector) or fluorescein-labeled goat anti-mouse IgG (Cappel) diluted 1:100. Cells were trypsinized and stained in PBS+5% FBS. For each sample, FACS analysis data was collected for 5000 cells. Cells were cloned on a Becton-Dickinson FACS Vantage and analyzed on a Becton-Dickinson FACS can at the Stanford Shared FACS Facility. Data analysis was facilitated by FlowJo software (Tree Star, Inc.). Data shown here as FACS profiles were adjusted for autofluorescence using autofluorescence compensation. Alberti et al. (1987) Cytometry 8:114–119. Mean fluorescence data were adjusted for autofluorescence and for endogenous mammalian β-gal activity by subtracting the mean fluorescence of untransduced cells loaded with FDG substrate.

[2] = tested on: T2, human EGF receptor; experiment: as above; type: cell-based
T2 construct: transmembrane domains of the human EGF receptor (amino acids 1–655) was amplified; expressed in transfected cells; host or cells: C2F3 mouse myoblasts, retrovirally transduced (pWZL-Δα-neo, pWZL-Δω-hygro), selected clone
T2 sequence (Q01279 25-1210): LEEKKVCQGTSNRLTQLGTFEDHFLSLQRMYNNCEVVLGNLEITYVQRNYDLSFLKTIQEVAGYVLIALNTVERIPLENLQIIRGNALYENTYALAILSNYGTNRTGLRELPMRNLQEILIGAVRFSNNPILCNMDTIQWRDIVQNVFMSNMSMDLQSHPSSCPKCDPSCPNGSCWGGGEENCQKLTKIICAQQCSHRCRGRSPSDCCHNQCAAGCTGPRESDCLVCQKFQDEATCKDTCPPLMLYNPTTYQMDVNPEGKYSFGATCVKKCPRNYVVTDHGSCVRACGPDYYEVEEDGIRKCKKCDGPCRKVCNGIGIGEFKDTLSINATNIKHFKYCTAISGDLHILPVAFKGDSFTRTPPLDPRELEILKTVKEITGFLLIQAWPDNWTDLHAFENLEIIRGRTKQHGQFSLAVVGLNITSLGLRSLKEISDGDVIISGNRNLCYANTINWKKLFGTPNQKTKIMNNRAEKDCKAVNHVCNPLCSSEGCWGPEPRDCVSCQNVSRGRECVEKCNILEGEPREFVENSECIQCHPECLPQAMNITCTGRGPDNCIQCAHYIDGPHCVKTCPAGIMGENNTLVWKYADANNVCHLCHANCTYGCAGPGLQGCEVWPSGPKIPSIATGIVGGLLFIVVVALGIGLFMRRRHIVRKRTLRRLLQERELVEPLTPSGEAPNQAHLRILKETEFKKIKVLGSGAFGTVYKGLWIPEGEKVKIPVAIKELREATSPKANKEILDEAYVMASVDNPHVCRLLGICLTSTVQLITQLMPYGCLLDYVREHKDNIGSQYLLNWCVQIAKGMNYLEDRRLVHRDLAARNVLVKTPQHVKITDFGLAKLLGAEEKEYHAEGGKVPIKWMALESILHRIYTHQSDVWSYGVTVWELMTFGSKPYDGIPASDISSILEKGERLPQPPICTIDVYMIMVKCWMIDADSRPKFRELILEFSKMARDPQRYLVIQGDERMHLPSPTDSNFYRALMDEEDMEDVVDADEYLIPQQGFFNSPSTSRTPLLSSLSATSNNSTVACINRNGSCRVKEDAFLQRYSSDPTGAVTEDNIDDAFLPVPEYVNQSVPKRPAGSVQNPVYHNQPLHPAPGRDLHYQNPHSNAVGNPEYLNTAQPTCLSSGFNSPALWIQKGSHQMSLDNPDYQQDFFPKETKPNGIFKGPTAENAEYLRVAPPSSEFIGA
Excerpt: as §1, §2, §3, §4

time at which dimerization peaked ([1]; 100 ng/ml EGF for 0 to 24 hours, FIG. 8): 2 to 4 h | increase in β-gal activity (chimeric receptor dimerization) in selected clone ([1]; 100 ng/ml EGF for two hours, FIG. 7E): several-fold increase | shortest EGF treatment at which dimerization could be detected ([1]; 100 ng/ml EGF, mean fluorescence, FIG. 7F): one | amount of chimeric receptor on the cell surface (immunofluorescence, FACS) ([1]; 100 ng/ml EGF, over the period that dimerization decreased, FIG. 8): remained essentially constant | response (dimerization) to a second EGF treatment ([1]; during the decline in dimerization, EGF still present): minimal
Molecule: EGF: mouse salivary gland EGF (Sigma)

dimerization of chimeric EGF receptor following stimulation with EGF-like growth factor [1]: Dimerization was also observed
Molecule: betacellulin: EGF-like growth factor that binds and activates the EGF receptor

dimerization of chimeric EGF receptor following stimulation with EGF-like growth factor [1]: Dimerization was also observed
Molecule: TGF-α: EGF-like growth factor that binds and activates the EGF receptor

difference in EGF receptor dimerization between EGF and EGF+tyrphostin treated cells ([2]; by 8 hours of treatment): no difference
Molecule: COc1cc2ncnc(Nc3cccc(Cl)c3)c2cc1OC [tyrphostin AG1478, reference compound]
β-gal activity of cells given tyrphostin and EGF versus EGF alone ([2]; 100 nM tyrphostin AG1478 + 100 ng/ml EGF, treatment times of up to 6 hours, FIG. 9B): greater β-gal activity than cells that received EGF alone | effect of repeated administration of tyrphostin on the increased β-gal activity ([2]; tyrphostin every four hours): did not further prolong the increased β-gal activity

dimerization of chimeric EGF receptor following stimulation with EGF-like growth factor [1]: Dimerization was also observed
Molecule: heparin-binding EGF-like growth factor: EGF-like growth factor that binds and activates the EGF receptor

From patent US7223537B2, “Detection of molecular interactions by reporter subunit complementation” (The Board of Trustees of the Leland Stanford Junior …, priority 1997, dated 2007)
